In patent US20260167699A1 (Chugai, published 2026):
Substitutions are numbered along the chain they refer to.

T1: FcγRIIa(R) extracellular domain, C-terminal His tag (human, UniProt P12318 34-217)
T1 construct: extracellular domain; Allotype R131; also called 2aR
T1 sequence: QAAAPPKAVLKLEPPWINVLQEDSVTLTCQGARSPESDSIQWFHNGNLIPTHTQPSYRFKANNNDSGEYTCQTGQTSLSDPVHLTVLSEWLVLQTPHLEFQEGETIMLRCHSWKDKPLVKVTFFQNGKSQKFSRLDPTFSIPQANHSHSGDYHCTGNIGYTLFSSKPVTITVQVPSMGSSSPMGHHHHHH

T2: FcγRIIa(H) extracellular domain, C-terminal His tag (human, UniProt P12318 34-217)
T2 construct: extracellular domain; Allotype H131; also called 2aH
T2 sequence: T1 sequence with R134H

T3: FcγRIIb extracellular domain, C-terminal His tag (human, UniProt P31994 43-217)
T3 construct: extracellular domain; also called 2b
T3 sequence: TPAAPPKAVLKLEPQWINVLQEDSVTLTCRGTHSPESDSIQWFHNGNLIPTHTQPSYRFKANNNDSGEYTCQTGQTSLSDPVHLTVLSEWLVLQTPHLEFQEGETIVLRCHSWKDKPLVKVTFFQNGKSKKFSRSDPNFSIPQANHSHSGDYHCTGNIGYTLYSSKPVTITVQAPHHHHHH

B1: GpH7-A5/GpH7-B3 variant N325_13S/GpL16-k0 (antibody, human IgG1, kappa)
heavy 1: not shown
heavy 2: not shown
light: DIVMTQSPLSLPVTPGEPASISCQASESLVHSNRNTYLHWYLQKPGQSPQLLIYKVSNRFSGVPDRFSGSGSGTDFTLKISRVEAEDVGVYYCSQNTHVPPTFGQGTKVEIERTVAAPSVFIFPPSDEQLKSGTASVVCLLNNFYPREAKVQWKVDNALQSGNSQESVTEQDSKDSTYSLSSTLTLSKADYEKHKVYACEVTHQGLSSPVTKSFNRGEC
notes: He Ab: anti-glypican 3 IgG1 heterodimer, only the GpH7-B3 chain mutated; position in EU numbering; also called He Ab
B2: GpH7-A5/GpH7-B3 variant P331_02A/GpL16-k0 (antibody, human IgG1, kappa)
heavy 1: not shown
heavy 2: not shown
light: B1 light
notes: as for B1
B3: GpH7-A5/GpH7-B3 variant P329_09D/GpL16-k0 (antibody, human IgG1, kappa)
heavy 1: not shown
heavy 2: not shown
light: B1 light
notes: as for B1
B4: GpH7-A5/GpH7-B3 variant P331_15Y/GpL16-k0 (antibody, human IgG1, kappa)
heavy 1: not shown
heavy 2: not shown
light: B1 light
notes: He Ab: anti-glypican 3 IgG1 heterodimer, only the GpH7-B3 chain mutated; position in EU numbering; also called P331_I5Y; He Ab
B5: GpH7-A5/GpH7-B3 variant P331_13S/GpL16-k0 (antibody, human IgG1, kappa)
heavy 1: not shown
heavy 2: not shown
light: B1 light
notes: as for B1
B6: GpH7-A5/GpH7-B3 variant P331_20W/GpL16-k0 (antibody, human IgG1, kappa)
heavy 1: not shown
heavy 2: not shown
light: B1 light
notes: as for B1
B7: GpH7-A5/GpH7-B3 variant P331_10E/GpL16-k0 (antibody, human IgG1, kappa)
heavy 1: not shown
heavy 2: not shown
light: B1 light
notes: as for B1
B8: GpH7-A5/GpH7-B3 variant P331_03V/GpL16-k0 (antibody, human IgG1, kappa)
heavy 1: not shown
heavy 2: not shown
light: B1 light
notes: as for B1
B9: GpH7-A5/GpH7-B3 variant P331_16H/GpL16-k0 (antibody, human IgG1, kappa)
heavy 1: not shown
heavy 2: not shown
light: B1 light
notes: as for B1
B10: GpH7-A5/GpH7-B3 variant P331_14T/GpL16-k0 (antibody, human IgG1, kappa)
heavy 1: not shown
heavy 2: not shown
light: B1 light
notes: as for B1
B11: GpH7-A5/GpH7-B3 variant P329_10E/GpL16-k0 (antibody, human IgG1, kappa)
heavy 1: not shown
heavy 2: not shown
light: B1 light
notes: as for B1
B12: GpH7-A5/GpH7-B3 variant P331_07I/GpL16-k0 (antibody, human IgG1, kappa)
heavy 1: not shown
heavy 2: not shown
light: B1 light
notes: as for B1
B13: GpH7-A5/GpH7-B3 variant N325_16H/GpL16-k0 (antibody, human IgG1, kappa)
heavy 1: not shown
heavy 2: not shown
light: B1 light
notes: as for B1
B14: GpH7-A5/GpH7-B3 variant P331_11K/GpL16-k0 (antibody, human IgG1, kappa)
heavy 1: not shown
heavy 2: not shown
light: B1 light
notes: as for B1
B15: GpH7-A5/GpH7-B3 variant P331_04F/GpL16-k0 (antibody, human IgG1, kappa)
heavy 1: not shown
heavy 2: not shown
light: B1 light
notes: as for B1
B16: GpH7-A5/GpH7-B3 variant S324_01G/GpL16-k0 (antibody, human IgG1, kappa)
heavy 1: not shown
heavy 2: not shown
light: B1 light
notes: as for B1
B17: GpH7-A5/GpH7-B3 variant P331_09D/GpL16-k0 (antibody, human IgG1, kappa)
heavy 1: not shown
heavy 2: not shown
light: B1 light
notes: as for B1
B18: GpH7-A5/GpH7-B3 variant P331_19Q/GpL16-k0 (antibody, human IgG1, kappa)
heavy 1: not shown
heavy 2: not shown
light: B1 light
notes: as for B1
B19: GpH7-A5/GpH7-B3 variant P331_08L/GpL16-k0 (antibody, human IgG1, kappa)
heavy 1: not shown
heavy 2: not shown
light: B1 light
notes: as for B1
B20: GpH7-A5/GpH7-B3 variant P331_06M/GpL16-k0 (antibody, human IgG1, kappa)
heavy 1: not shown
heavy 2: not shown
light: B1 light
notes: as for B1
B21: GpH7-A5/GpH7-B3 variant P331_18N/GpL16-k0 (antibody, human IgG1, kappa)
heavy 1: not shown
heavy 2: not shown
light: B1 light
notes: as for B1

Experiments:
Experiment in all cases: SPR (Biacore); binding relative to GpH7-A5/GpH7-B3/GpL16-k0 x100;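 further: antibodies captured on a chip surface, soluble FcγR flowed over in HBS-EP+ running buffer at 25 °C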
[1] = target: T4, FcγRIa extracellular domain, C-terminal His tag (human, UniProt P12314 16-292)
T4 construct: extracellular domain; also called 1a
T4 sequence (P12314 other isoform, or with tags, fused parts or gaps): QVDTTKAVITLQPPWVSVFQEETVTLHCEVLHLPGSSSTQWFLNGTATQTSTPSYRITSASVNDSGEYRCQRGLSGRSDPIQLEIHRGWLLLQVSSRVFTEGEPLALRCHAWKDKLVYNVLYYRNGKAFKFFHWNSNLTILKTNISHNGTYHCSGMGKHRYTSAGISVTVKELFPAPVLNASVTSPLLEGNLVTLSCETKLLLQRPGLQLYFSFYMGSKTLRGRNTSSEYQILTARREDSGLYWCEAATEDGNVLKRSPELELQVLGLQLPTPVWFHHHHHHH

[2] = target: T1, FcγRIIa(R) extracellular domain, …
[3] = target: T5, FcγRIIIa extracellular domain, C-terminal His tag (human, UniProt P08637 17-208)
T5 construct: extracellular domain; also called 3a
T5 sequence (P08637 other isoform, or with tags, fused parts or gaps): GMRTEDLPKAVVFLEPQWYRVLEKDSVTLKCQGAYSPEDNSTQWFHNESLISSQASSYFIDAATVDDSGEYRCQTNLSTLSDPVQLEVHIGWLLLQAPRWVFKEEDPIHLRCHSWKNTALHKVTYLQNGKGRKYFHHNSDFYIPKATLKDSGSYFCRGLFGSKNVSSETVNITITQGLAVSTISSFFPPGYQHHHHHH

[4] = target: T2, FcγRIIa(H) extracellular domain, …
[5] = target: T3, FcγRIIb extracellular domain, …

Binder	He/Con 1a [1] [%]	He/Con 2aR [2] [%]	He/Con 3a [3] [%]	He/Con 2aH [4] [%]	He/Con 2b [5] [%]
B1	102	137	71.9	83	198
B2	105	105	82.5	93.9	110
B3	80.1	76	52.5	57.1	60.4
B4	109	112	74.9	89	127
B5	108	104	80.9	94	107
B6	107	109	71.9	85.8	123
B7	108	112	68.7	90.1	128
B8	104	114	66.9	85.4	132
B9	105	113	73.4	87.5	128
B10	102	104	67.8	86.5	111
B11	81.4	72.7	52.7	57.6	59.5
B12	106	109	60.4	80.1	127
B13	99.9	85.3	68	50	78.5
B14	100	94.6	61.8	83.7	93.9
B15	108	110	70.7	87.7	122
B16	93.2	94.4	114	110	106
B17	109	101	71.6	93.6	104
B18	108	96.1	73.9	91.6	94
B19	105	101	66	85.9	106
B20	106	105	68.4	88.1	113
B21	106	104	67.1	87.2	110
